Source: the supplement of paper PMC10567573

B1: ANKRD40 (parent)
chain: YQELLRVCCCELGVNPDQVEKIRK
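Note: lentivirally expressed fusions sorted by FACS into six bins by GFP to DsRed ratio, PSI derived from sequencing read proportions per bin multiplied by bin number.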

Variants of: B1
Test: protein stability index of a GFP-peptide fusion (GPS, HEK-293T) (PSI 1-6); higher = more stable
Details: c terminus: a fixed tail appended
YQHLLRVCCCELGVNPDQVEKIRK [E3H] gave a protein stability index of 2.01. With YQMLLRVCCCELGVNPDQVEKIRK [E3M] the protein stability index was 1.64. For YQQLLRVCCCELGVNPDQVEKIRK [E3Q], the protein stability index was 1.59. YQALLRVCCCELGVNPDQVEKIRK [E3A] gave a protein stability index of 1.52. In the case of YQKLLRVCCCELGVNPDQVEKIRK [E3K], the protein stability index is reported as 1.96. In the case of YQILLRVCCCELGVNPDQVEKIRK [E3I], the protein stability index is reported as 1.57. In the case of YQFLLRVCCCELGVNPDQVEKIRK [E3F], the protein stability index is reported as 1.76. YQPLLRVCCCELGVNPDQVEKIRK [E3P] showed a protein stability index of 2.21. YQSLLRVCCCELGVNPDQVEKIRK [E3S] gave a protein stability index of 2.26. In the case of YQDLLRVCCCELGVNPDQVEKIRK [E3D], the protein stability index is reported as 1.59. With YQRLLRVCCCELGVNPDQVEKIRK [E3R] the protein stability index was 1.21. In the case of YQYLLRVCCCELGVNPDQVEKIRK [E3Y], the protein stability index is reported as 1.66. Variant YQTLLRVCCCELGVNPDQVEKIRK [E3T] has a protein stability index of 2.13. Variant YQNLLRVCCCELGVNPDQVEKIRK [E3N] has a protein stability index of 2.09. Variant CQELLRVCCCELGVNPDQVEKIRK [Y1C] has a protein stability index of 1.95. HQELLRVCCCELGVNPDQVEKIRK [Y1H] gave a protein stability index of 3.27. In the case of WQELLRVCCCELGVNPDQVEKIRK [Y1W], the protein stability index is reported as 1.29. For AQELLRVCCCELGVNPDQVEKIRK [Y1A], the protein stability index was 2.96. Variant KQELLRVCCCELGVNPDQVEKIRK [Y1K] has a protein stability index of 1.96. For VQELLRVCCCELGVNPDQVEKIRK [Y1V], the protein stability index was 1.15. Variant NQELLRVCCCELGVNPDQVEKIRK [Y1N] has a protein stability index of 3.55. Work on PQELLRVCCCELGVNPDQVEKIRK [Y1P] yielded a protein stability index of 1.6. For FQELLRVCCCELGVNPDQVEKIRK [Y1F], the protein stability index was 1.99. For RQELLRVCCCELGVNPDQVEKIRK [Y1R], the protein stability index was 2.16. Work on SQELLRVCCCELGVNPDQVEKIRK [Y1S] yielded a protein stability index of 2.65. In the case of QQELLRVCCCELGVNPDQVEKIRK [Y1Q], the protein stability index is reported as 3.28. For EQELLRVCCCELGVNPDQVEKIRK [Y1E], the protein stability index was 3.69. In the case of LQELLRVCCCELGVNPDQVEKIRK [Y1L], the protein stability index is reported as 1.51. With IQELLRVCCCELGVNPDQVEKIRK [Y1I] the protein stability index was 1.78. With DQELLRVCCCELGVNPDQVEKIRK [Y1D] the protein stability index was 3.49. With TQELLRVCCCELGVNPDQVEKIRK [Y1T] the protein stability index was 2.53. Variant MQELLRVCCCELGVNPDQVEKIRK [Y1M] has a protein stability index of 2.29. With YQELLCVCCCELGVNPDQVEKIRK [R6C] the protein stability index was 1.92. Variant YQELLGVCCCELGVNPDQVEKIRK [R6G] has a protein stability index of 2.23. YQELLEVCCCELGVNPDQVEKIRK [R6E] gave a protein stability index of 2.36. YQELLWVCCCELGVNPDQVEKIRK [R6W] gave a protein stability index of 1.58. YQELLLVCCCELGVNPDQVEKIRK [R6L] gave a protein stability index of 1.74. In the case of YQELLSVCCCELGVNPDQVEKIRK [R6S], the protein stability index is reported as 2.03. Work on YQELLQVCCCELGVNPDQVEKIRK [R6Q] yielded a protein stability index of 2.26. Work on YQELLFVCCCELGVNPDQVEKIRK [R6F] yielded a protein stability index of 1.78. For YQELLYVCCCELGVNPDQVEKIRK [R6Y], the protein stability index was 2.18. For YQELLKVCCCELGVNPDQVEKIRK [R6K], the protein stability index was 1.91. YQELLHVCCCELGVNPDQVEKIRK [R6H] showed a protein stability index of 2.11. Work on YQELLMVCCCELGVNPDQVEKIRK [R6M] yielded a protein stability index of 1.73. In the case of YQELLNVCCCELGVNPDQVEKIRK [R6N], the protein stability index is reported as 2.26. In the case of YQELLTVCCCELGVNPDQVEKIRK [R6T], the protein stability index is reported as 1.54. In the case of YQELLDVCCCELGVNPDQVEKIRK [R6D], the protein stability index is reported as 2.56. YQELLAVCCCELGVNPDQVEKIRK [R6A] gave a protein stability index of 2.02. YQELLIVCCCELGVNPDQVEKIRK [R6I] gave a protein stability index of 1.49. Work on YQELLPVCCCELGVNPDQVEKIRK [R6P] yielded a protein stability index of 2.02. With YFELLRVCCCELGVNPDQVEKIRK [Q2F] the protein stability index was 1.44. Work on YDELLRVCCCELGVNPDQVEKIRK [Q2D] yielded a protein stability index of 2.47. YSELLRVCCCELGVNPDQVEKIRK [Q2S] gave a protein stability index of 1.57. Variant YGELLRVCCCELGVNPDQVEKIRK [Q2G] has a protein stability index of 2.08. With YIELLRVCCCELGVNPDQVEKIRK [Q2I] the protein stability index was 1.73. YKELLRVCCCELGVNPDQVEKIRK [Q2K] gave a protein stability index of 2.5. With YMELLRVCCCELGVNPDQVEKIRK [Q2M] the protein stability index was 1.76. With YNELLRVCCCELGVNPDQVEKIRK [Q2N] the protein stability index was 2.52. With YEELLRVCCCELGVNPDQVEKIRK [Q2E] the protein stability index was 2.98. YLELLRVCCCELGVNPDQVEKIRK [Q2L] gave a protein stability index of 1.51. In the case of YWELLRVCCCELGVNPDQVEKIRK [Q2W], the protein stability index is reported as 1.67. With YRELLRVCCCELGVNPDQVEKIRK [Q2R] the protein stability index was 2.58. YPELLRVCCCELGVNPDQVEKIRK [Q2P] gave a protein stability index of 2.08. In the case of YCELLRVCCCELGVNPDQVEKIRK [Q2C], the protein stability index is reported as 1.64. With YYELLRVCCCELGVNPDQVEKIRK [Q2Y] the protein stability index was 1.86. In the case of YAELLRVCCCELGVNPDQVEKIRK [Q2A], the protein stability index is reported as 1.94. With YHELLRVCCCELGVNPDQVEKIRK [Q2H] the protein stability index was 1.77. Variant YQELQRVCCCELGVNPDQVEKIRK [L5Q] has a protein stability index of 3.04. YQELKRVCCCELGVNPDQVEKIRK [L5K] gave a protein stability index of 2.37. Work on YQELIRVCCCELGVNPDQVEKIRK [L5I] yielded a protein stability index of 1.77. With YQELPRVCCCELGVNPDQVEKIRK [L5P] the protein stability index was 1.75. YQELTRVCCCELGVNPDQVEKIRK [L5T] showed a protein stability index of 1.91. With YQELHRVCCCELGVNPDQVEKIRK [L5H] the protein stability index was 2.18. For YQELARVCCCELGVNPDQVEKIRK [L5A], the protein stability index was 2.5. With YQELGRVCCCELGVNPDQVEKIRK [L5G] the protein stability index was 2.05. Variant YQELCRVCCCELGVNPDQVEKIRK [L5C] has a protein stability index of 3.06. Work on YQELDRVCCCELGVNPDQVEKIRK [L5D] yielded a protein stability index of 3.26. For YQELMRVCCCELGVNPDQVEKIRK [L5M], the protein stability index was 2.41. Work on YQELNRVCCCELGVNPDQVEKIRK [L5N] yielded a protein stability index of 1.99. Variant YQELLRGCCCELGVNPDQVEKIRK [V7G] has a protein stability index of 1.48. YQELLRFCCCELGVNPDQVEKIRK [V7F] showed a protein stability index of 1.61. YQELLRYCCCELGVNPDQVEKIRK [V7Y] gave a protein stability index of 1.79. In the case of YQELLRNCCCELGVNPDQVEKIRK [V7N], the protein stability index is reported as 1.96. In the case of YQELLRLCCCELGVNPDQVEKIRK [V7L], the protein stability index is reported as 1.46. In the case of YQELLRKCCCELGVNPDQVEKIRK [V7K], the protein stability index is reported as 2.23. With YQELLRCCCCELGVNPDQVEKIRK [V7C] the protein stability index was 2.1. For YQELLRDCCCELGVNPDQVEKIRK [V7D], the protein stability index was 2.53. Variant YQELLRRCCCELGVNPDQVEKIRK [V7R] has a protein stability index of 1.41. YQELLRACCCELGVNPDQVEKIRK [V7A] showed a protein stability index of 2.15. Work on YQELLRHCCCELGVNPDQVEKIRK [V7H] yielded a protein stability index of 2.59. For YQELLRPCCCELGVNPDQVEKIRK [V7P], the protein stability index was 2.5. In the case of YQELLRQCCCELGVNPDQVEKIRK [V7Q], the protein stability index is reported as 1.97. YQELLRECCCELGVNPDQVEKIRK [V7E] showed a protein stability index of 2.28. In the case of YQELLRICCCELGVNPDQVEKIRK [V7I], the protein stability index is reported as 2.03.
